Results from patent publication US20150098947A1 (RESEARCH DEVELOPMENT FOUNDATION, published 2015).
One block for each binder: values may come before it.

Tests used:
[1] = molecular target: T1, human Olfml3-FLAG (human, UniProt Q9NRN5 22-406, limits assumed); assay: hybridoma screening ELISA
T1 construct: Screening antigen of the hybridoma ELISA; the tag is written last only by convention; not shown: FLAG tag
T1 sequence (looked up): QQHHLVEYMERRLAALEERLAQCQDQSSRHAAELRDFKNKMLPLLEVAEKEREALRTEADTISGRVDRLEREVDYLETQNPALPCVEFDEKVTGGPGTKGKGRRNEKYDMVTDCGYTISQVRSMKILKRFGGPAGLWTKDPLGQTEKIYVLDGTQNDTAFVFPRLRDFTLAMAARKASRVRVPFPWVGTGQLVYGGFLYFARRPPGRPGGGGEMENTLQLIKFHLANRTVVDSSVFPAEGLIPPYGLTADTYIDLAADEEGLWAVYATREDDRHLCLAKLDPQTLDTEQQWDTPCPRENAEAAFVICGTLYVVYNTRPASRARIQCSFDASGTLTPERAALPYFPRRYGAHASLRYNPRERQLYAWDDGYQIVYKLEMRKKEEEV
Experimental: The inventors produced a panel of monoclonal antibodies against a recombinant Olfml-3 protein. Three antibodies against human Olfml3 were generated using standard techniques by injecting simultaneously two 14-aa long peptides comprising epitopes in the coiled-coil (peptide A, 86-99 aa: […]; SEQ ID NO: 5) and the olfactomedin-like domains (peptide B, 390-403 aa: […]; SEQ ID NO: 6) as immunogens in rats (Aurrand-Lions et al., 1996). Briefly, human Olfml3 peptides A and B coupled to 100 μg KLH carrier protein (keyhole limpet hemocyanin, Pierce) and mixed with adjuvant 56322 (Sigma), were used to immunize female Wister rats. In total, three injections were performed every 9 days. Two days after a final s.c. injection of human Olfml3 peptides, blasts from draining lymph nodes were fused to Sp2/0 cells, and hybridomas were selected in HAT-containing medium (Life Technologies). Growing clones were screened by ELISA for the production of monoclonal antibodies recognizing specifically human Olfml3-FLAG. Positive clones were subcloned, rescreened, and further tested. Antibodies were purified on protein G-Sepharose columns (GE HealthCare) according to the manufacturer instructions. Two Olfml3-binding antibodies, 46A9BO and 9F8BO, are of IgG2b isotype subclass and one, Z14A7, is of IgG2c isotype subclass. The 46A9BO and 9F8BO monoclonal antibodies were used for in vivo tumor graft models.

[2] = molecular target: T2, Olfml-3 peptide A (human Olfml3 86-99 aa, coiled-coil domain) (human); assay: peptide binding test (ELISA)
T2 peptide: RVDRLEREVDYLET

[3] = molecular target: T3, Olfml-3 peptide B (human Olfml3 390-403 aa, olfactomedin-like domain) (human); assay: peptide binding test (ELISA)
T3 peptide: GYQIVYKLEMRKKE

binding result [1]: binds
B1: Z14A7 monoclonal antibody (antibody, IgG2c, V domains shown)
VH: EVQLVETGGSLVQPGKSLKLTCATSGFTFSNAWMHWVRQSPEKQLEWVAQIKAKSNNYATYYAESVKGRFTISRDDSKSSIYLQMNSLKEEDTAIYYCLYGYYFDYWGQGVMVTVSS
VL: DVVMTQTPVSLPVSLGGQASISCRSSQSLIHSNGNTYLHWFLQKPGQSPQLLIYRISNRFSGVPDRFSGSGSGTDFTLKISRVESEDLGLYYCLQGTHLPFTFGSGTKLEIKR
notes: Rat hybridoma antibody, IgG2c

binding result [2]: no binding
binding result [3]: binds
binding result [1]: binds
B2: 46A9BO monoclonal antibody (glycosylated) (antibody, IgG2b, V domains shown)
VH: AVHLVESGGGLVQPKESLKISCAASGFTFSNAAMYWVRQAPGKGLEWVARIRTKPNDYATYYVDSVKGRFTISRDDSQSMVYLQMDNLKTEDTAMYYCTAFTEPDYWGQGVMVTVSS
VL: LIQPPSASVTLGSTVSLTCVGDELSKTYAHWYQQKPDKTIVSVIYKDSERPSGISDRFSGSSSGTTATLTIHGTLAEDEADYYCLSTYSDDNLPVFGGGTKLTVL
notes: also called mAb 2; anti-Olfml-3B

binding result [2]: no binding
binding result [3]: binds
B3: deglycosylated 46A9BO antibody (antibody, V domains shown)
VH: B2 VH
VL: B2 VL
notes: Same rat IgG2b antibody as 46A9BO after deglycosylation; also called 46A9BO (deglycosylated)
